Our source for the α-human koff and α-rat koff values is patent US10766952B2, “Methods for reducing migraine frequency in a subject in need thereof” (Beth Israel Deaconess Medical Center, Inc., priority 2017, dated 2020).

One test concerns the target T1, human α-CGRP (Homo sapiens, UniProt P06881).
T1 construct: 1-37 (WT); purchased; host or cells: synthetic peptide
T1 sequence (P06881 83-119 limits assumed): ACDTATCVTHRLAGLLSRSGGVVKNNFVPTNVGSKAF
The experiment in a line: Biacore affinity of antibody G1 Fab and variants to human α-CGRP. Type of test: binding. The note with it: 37° C., Fab, screening mode unless underlined. Here is the method:
(§1) Biacore assay for affinity determination. […] All Biacore assays were conducted in HBS-EP running buffer (10 mM HEPES pH 7.4, 150 mM NaCl, 3 mM EDTA, 0.005% v/v polysorbate P20). CGRP surfaces were prepared by diluting the N-biotinylated CGRP to a concentration of less than 0.001 mg/mL into HBS-EP buffer and injecting it across the SA sensor chip using variable contact times. Low capacity surfaces, corresponding to capture levels <50 response units (RU) were used for high-resolution kinetic studies, whereas high capacity surfaces (about 800 RU of captured CGRP) were used for concentration studies, screening, and solution affinity determinations. […] Samples were typically injected for lminute at 100 μL/min and dissociation times of at least 10 minutes were allowed. After each binding cycle, surfaces were regenerated with 25 mM NaOH in 25% v/v ethanol, which was tolerated over hundreds of cycles. An entire titration series (typically generated in duplicate) was fit globally to a 1:1 Langmuir binding model using the BlAevaluation program. This returned a unique pair of association and dissociation kinetic rate constants (respectively, kon and koff) for each binding interaction, whose ratio gave the equilibrium dissociation constant (KD=koff/[…]).
(§2) High-resolution analysis of binding interactions with extremely slow offrates. […] The protocol described above was used with the following modifications. The association rate constant (kon) was determined by injecting a 2-fold titration series (in duplicate) spanning 550 nM-1 nM for 30 seconds at 100 μL/min and allowing only a 30 second dissociation phase. The dissociation rate constant (koff) was determined by injecting three concentrations (high, medium, and low) of the same titration series in duplicate for 30 seconds and allowing a 2-hour dissociation phase. The affinity (KD) of each interaction was obtained by combining the kon and koff values obtained in both types of experiments, as shown in Table 4.
(§3) The binding affinities of Fab fragments were determined by Biacore by flowing them across CGRPs on a SA chip.

A further test has as its target T2, rat α-CGRP (Rattus norvegicus, UniProt P01256).
T2 construct: rat α (1-37); host or cells: synthetic peptide
T2 sequence (P01256 83-119 limits assumed): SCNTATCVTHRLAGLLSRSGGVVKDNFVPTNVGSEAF
As to the kind of experiment: Biacore affinity of antibody G1 Fab and variants to rat α-CGRP. The format is binding. The note with it: 37° C., Fab, screening mode unless underlined. Here is the method:
as §1, §2, §3

B1: M80: G1 variant: L1 R28N,T30S; L2 L56I; H2 E54K,A57N,S58V; HC-FW3 L99T,A100V (antibody, V domains shown)
VH: EVQLVESGGGLVQPGGSLRLSCAASGFTFSNYWISWVRQAPGKGLEWVAEIRSKSDNVATHYAEAVKGRFTISRDNAKNSLYLQMNSLRAEDTAVYYCTVYFDYGLAIQNYWGQGTLVTVSS
VL: EIVLTQSPATLSLSPGERATLSCKASKNVSTYVSWYQQKPGQAPRLLIYGASNRYIGIPARFSGSGSGTDFTLTISSLEPEDFAVYYCSQSYNYPYTFGQGTKLEIK
In turn, B1 came in with a α-human koff with human α-CGRP of 0.00209 s⁻¹. Further, the α-rat koff with rat α-CGRP amounted to 0.0993 s⁻¹.

B2: M82: G1 variant: L1 R28N,T30V; L2 A51H,L56T; H2 A57N; HC-FW3 L991 (printed),A100V (antibody, V domains shown)
VH: EVQLVESGGGLVQPGGSLRLSCAASGFTFSNYWISWVRQAPGKGLEWVAEIRSESDNSATHYAEAVKGRFTISRDNAKNSLYLQMNSLRAEDTAVYYCTVYFDYGLAIQNYWGQGTLVTVSS
VL: EIVLTQSPATLSLSPGERATLSCKASKNVVTYVSWYQQKPGQAPRLLIYGHSNRYTGIPARFSGSGSGTDFTLTISSLEPEDFAVYYCSQSYNYPYTFGQGTKLEIK
The molecule B2 registered a α-human koff in the test with human α-CGRP of 0.000877 s⁻¹. The α-rat koff in the test with rat α-CGRP worked out at 0.00699 s⁻¹.

B3: M22: G1 variant: L1 R28W; HC-FW3 L99T (antibody, V domains shown)
VH: EVQLVESGGGLVQPGGSLRLSCAASGFTFSNYWISWVRQAPGKGLEWVAEIRSESDASATHYAEAVKGRFTISRDNAKNSLYLQMNSLRAEDTAVYYCTAYFDYGLAIQNYWGQGTLVTVSS
VL: EIVLTQSPATLSLSPGERATLSCKASKWVTTYVSWYQQKPGQAPRLLIYGASNRYLGIPARFSGSGSGTDFTLTISSLEPEDFAVYYCSQSYNYPYTFGQGTKLEIK
Consider B3, for which the α-human koff with human α-CGRP was 0.000116 s⁻¹. In the test with rat α-CGRP, this molecule gave a α-rat koff of 0.0011 s⁻¹.

B4: M27: G1 variant: L1 R28N,T30A; HC-FW3 L99T,A100V (antibody, V domains shown)
VH: EVQLVESGGGLVQPGGSLRLSCAASGFTFSNYWISWVRQAPGKGLEWVAEIRSESDASATHYAEAVKGRFTISRDNAKNSLYLQMNSLRAEDTAVYYCTVYFDYGLAIQNYWGQGTLVTVSS
VL: EIVLTQSPATLSLSPGERATLSCKASKNVATYVSWYQQKPGQAPRLLIYGASNRYLGIPARFSGSGSGTDFTLTISSLEPEDFAVYYCSQSYNYPYTFGQGTKLEIK
For B4, the α-human koff with human α-CGRP was 0.000357 s⁻¹. The molecule further yielded a α-rat koff with rat α-CGRP of 0.00341 s⁻¹.

B5: M21: G1 variant: L1 R28W; HC-FW3 L99S (antibody, V domains shown)
VH: EVQLVESGGGLVQPGGSLRLSCAASGFTFSNYWISWVRQAPGKGLEWVAEIRSESDASATHYAEAVKGRFTISRDNAKNSLYLQMNSLRAEDTAVYYCSAYFDYGLAIQNYWGQGTLVTVSS
VL: EIVLTQSPATLSLSPGERATLSCKASKWVTTYVSWYQQKPGQAPRLLIYGASNRYLGIPARFSGSGSGTDFTLTISSLEPEDFAVYYCSQSYNYPYTFGQGTKLEIK
Take B5: in the test with human α-CGRP, the α-human koff was determined as 0.000142 s⁻¹. The same molecule displayed a α-rat koff in the test with rat α-CGRP of 0.000695 s⁻¹.

B6: M83: G1 variant: L1 R28N,T30V; L2 A51H,L56T; H2 E54K,A57N,S58M,H61F; HC-FW3 L991 (printed),A100V (antibody, V domains shown)
VH: EVQLVESGGGLVQPGGSLRLSCAASGFTFSNYWISWVRQAPGKGLEWVAEIRSKSDNMATFYAEAVKGRFTISRDNAKNSLYLQMNSLRAEDTAVYYCTVYFDYGLAIQNYWGQGTLVTVSS
VL: EIVLTQSPATLSLSPGERATLSCKASKNVVTYVSWYQQKPGQAPRLLIYGHSNRYTGIPARFSGSGSGTDFTLTISSLEPEDFAVYYCSQSYNYPYTFGQGTKLEIK
In turn, B6 displayed a α-human koff in the test with human α-CGRP of 0.000933 s⁻¹. Besides, in the test with rat α-CGRP, the α-rat koff entry was “No binding”.

B7: M26: G1 variant: L1 R28N; H2 A57G; HC-FW3 L99T,A100V (antibody, V domains shown)
VH: EVQLVESGGGLVQPGGSLRLSCAASGFTFSNYWISWVRQAPGKGLEWVAEIRSESDGSATHYAEAVKGRFTISRDNAKNSLYLQMNSLRAEDTAVYYCTVYFDYGLAIQNYWGQGTLVTVSS
VL: EIVLTQSPATLSLSPGERATLSCKASKNVTTYVSWYQQKPGQAPRLLIYGASNRYLGIPARFSGSGSGTDFTLTISSLEPEDFAVYYCSQSYNYPYTFGQGTKLEIK
For the molecule B7, in the test with human α-CGRP, the α-human koff was 0.000148 s⁻¹. This molecule also had a α-rat koff with rat α-CGRP of 0.000924 s⁻¹.

B8: M81: G1 variant: L1 R28N,T30S; L2 L56S; H2 E54K,A57N,S58E; HC-FW3 L99T,A100V (antibody, V domains shown)
VH: EVQLVESGGGLVQPGGSLRLSCAASGFTFSNYWISWVRQAPGKGLEWVAEIRSKSDNEATHYAEAVKGRFTISRDNAKNSLYLQMNSLRAEDTAVYYCTVYFDYGLAIQNYWGQGTLVTVSS
VL: EIVLTQSPATLSLSPGERATLSCKASKNVSTYVSWYQQKPGQAPRLLIYGASNRYSGIPARFSGSGSGTDFTLTISSLEPEDFAVYYCSQSYNYPYTFGQGTKLEIK
In turn, B8 came in with a α-human koff in the test with human α-CGRP of 0.00049 s⁻¹. For the same molecule, in the test with rat α-CGRP, the α-rat koff worked out at 0.00429 s⁻¹.

B9: M24: G1 variant: L1 R28L; HC-FW3 L99T,A100V (antibody, V domains shown)
VH: EVQLVESGGGLVQPGGSLRLSCAASGFTFSNYWISWVRQAPGKGLEWVAEIRSESDASATHYAEAVKGRFTISRDNAKNSLYLQMNSLRAEDTAVYYCTVYFDYGLAIQNYWGQGTLVTVSS
VL: EIVLTQSPATLSLSPGERATLSCKASKLVTTYVSWYQQKPGQAPRLLIYGASNRYLGIPARFSGSGSGTDFTLTISSLEPEDFAVYYCSQSYNYPYTFGQGTKLEIK
For B9, in the test with human α-CGRP, the α-human koff was 0.000148 s⁻¹. Further, the α-rat koff with rat α-CGRP came to 0.00104 s⁻¹.

B10: M23: G1 variant: L1 R28G; HC-FW3 L99T,A100V (antibody, V domains shown)
VH: EVQLVESGGGLVQPGGSLRLSCAASGFTFSNYWISWVRQAPGKGLEWVAEIRSESDASATHYAEAVKGRFTISRDNAKNSLYLQMNSLRAEDTAVYYCTVYFDYGLAIQNYWGQGTLVTVSS
VL: EIVLTQSPATLSLSPGERATLSCKASKGVTTYVSWYQQKPGQAPRLLIYGASNRYLGIPARFSGSGSGTDFTLTISSLEPEDFAVYYCSQSYNYPYTFGQGTKLEIK
With B10, the α-human koff with human α-CGRP turned out to be 0.00013 s⁻¹. In addition, in the test with rat α-CGRP, the α-rat koff turned out to be 0.000799 s⁻¹.

B11: M25: G1 variant: L1 R28N; HC-FW3 L99T,A100V (antibody, V domains shown)
VH: EVQLVESGGGLVQPGGSLRLSCAASGFTFSNYWISWVRQAPGKGLEWVAEIRSESDASATHYAEAVKGRFTISRDNAKNSLYLQMNSLRAEDTAVYYCTVYFDYGLAIQNYWGQGTLVTVSS
VL: EIVLTQSPATLSLSPGERATLSCKASKNVTTYVSWYQQKPGQAPRLLIYGASNRYLGIPARFSGSGSGTDFTLTISSLEPEDFAVYYCSQSYNYPYTFGQGTKLEIK
With B11, the α-human koff with human α-CGRP is 0.00014 s⁻¹. The α-rat koff with rat α-CGRP worked out at 0.0014 s⁻¹.

B12: M84: G1 variant: L1 R28N,T30V; L2 A51H,L56T; H2 E54N,A57N; HC-FW3 L991 (printed),A100V (antibody, V domains shown)
VH: EVQLVESGGGLVQPGGSLRLSCAASGFTFSNYWISWVRQAPGKGLEWVAEIRSNSDNSATHYAEAVKGRFTISRDNAKNSLYLQMNSLRAEDTAVYYCTVYFDYGLAIQNYWGQGTLVTVSS
VL: EIVLTQSPATLSLSPGERATLSCKASKNVVTYVSWYQQKPGQAPRLLIYGHSNRYTGIPARFSGSGSGTDFTLTISSLEPEDFAVYYCSQSYNYPYTFGQGTKLEIK
B12: the α-human koff with human α-CGRP worked out at 0.00108 s⁻¹. In the test with rat α-CGRP, the α-rat koff is 0.0176 s⁻¹.

B13: M20: G1 variant: L1 R28W; HC-FW3 L99R,A100L (antibody, V domains shown)
VH: EVQLVESGGGLVQPGGSLRLSCAASGFTFSNYWISWVRQAPGKGLEWVAEIRSESDASATHYAEAVKGRFTISRDNAKNSLYLQMNSLRAEDTAVYYCRLYFDYGLAIQNYWGQGTLVTVSS
VL: EIVLTQSPATLSLSPGERATLSCKASKWVTTYVSWYQQKPGQAPRLLIYGASNRYLGIPARFSGSGSGTDFTLTISSLEPEDFAVYYCSQSYNYPYTFGQGTKLEIK
Regarding B13, the α-human koff in the test with human α-CGRP worked out at 0.000136 s⁻¹. In the test with rat α-CGRP, this molecule showed a α-rat koff of 0.00144 s⁻¹.
